Experimental data reported in patent publication US20160137713A1.

Columns and labels:
[1] = biological target: soluble human FcRn (human) (UniProt P55899); assay: ELISA on coated shFcRn, scFv 100 ng/mL, pH 7.4
[2] = biological target: soluble human FcRn (human) (UniProt P55899); assay: ELISA on coated shFcRn, scFv 100 ng/mL, pH 6.0

| ELISA (OD450) [1] | ELISA (OD450) [2] | Binder |
| --- | --- | --- |
| 1.8 OD450 | 2.06 OD450 | A12-E05 (scFv, V domains shown, not shown: small tags and cut ends, scFv linker not given) VH: EVQLVESGGGLVQPGRSLRLSCAASGFTFDEYGMHWVRQAPGKGLEWVSGVSWNSGSIAYADSVRGRFTISRDNAKNSLYLQMNSLRAEDTALYYCAKGRILDVWGQGTTVTVSS VL: QSALTQPASVSGSPGQSITISCTGSSSDVGGYNYVSWYQQHPGKAPKLMIYDVTKRPSGVSNRFSGSKSGNTASLTISGLQAEDEADYYGSYNNSTFYVFGTGTKVTVLG |
| 1.57 OD450 | 2.26 OD450 | A12-H04 (scFv, V domains shown, not shown: small tags and cut ends, linker not given) VH: EVQLVESGGGLVQPGRSLRLSCAASGFTFDEYGMHWVRQAPGKGLEWVSGVSWNSGSIAYADSVRGRFTISRDNAKNSLYLQMNSLRAEDTALYYCAKGRLLDVWGQGTTVTVSS VL: QSALTQPASVSGSPGQSITISCTGSSSDVGGYNYVSWYQQHPGKAPKLMIYDVTKRPSGVSNRFSGSKSGNTASLTISGLQAEDEADYYGAYSNTNFYVFGTGTKVTVLG |

The remaining lines, values behind:

| Binder | ELISA (OD450) [1] | ELISA (OD450) [2] |
| --- | --- | --- |
| A12-E01 (scFv, V domains shown, not shown: small tags and cut ends, linker not given) VH: EVQLVESGGGLVQPGRSLRLSCAASGFTFDEYGMHWVRQAPGKGLEWVSGVSWNSGSIAYADSVRGRFTISRDNAKNSLYLQMNSLRAEDTALYYCAKSRSMDVWGQGTTVTVSS VL: QSALTQPASVSGSPGQSITISCTGSSSDVGGYNYVSWYQQHPGKAPKLMIYDVTKRPSGVSNRFSGSKSGNTASLTISGLQAEDEADYYGSYSNNNFYVFGTGTKVTVLG | 1.05 OD450 | 1.71 OD450 |
| A12-E04 (scFv, V domains shown, not shown: small tags and cut ends, linker not given) VH: EVQLVESGGGLVQPGRSLRLSCAASGFTFDEYGMHWVRQAPGKGLEWVSGVSWNSGSIAYADSVRGRFTISRDNAKNSLYLQMNSLRAEDTALYYCAKGRLFDVWGQGTTVTVSS VL: QSALTQPASVSGSPGQSITISCTGSSSDVGGYNYVSWYQQHPGKAPKLMIYDVTKRPSGVSNRFSGSKSGNTASLTISGLQAEDEADYYGSYSNSNFYVFGTGTKVTVLG | 1.29 OD450 | 1.59 OD450 |
